# Target: T1, HLA-A*24 (human)
# T1 construct: MHC monomer made peptide-receptive by UV cleavage of a UV-sensitive ligand; also called peptide-receptive MHC class I monomer
# Assay: UV peptide-exchange ELISA; ++++ = yield >75%
# Excerpt: (§1) Candidate peptides for T cell based therapies according to the present invention were further tested for their MHC binding capacity (affinity). The individual peptide-MHC complexes were produced by UV-ligand exchange, where a UV-sensitive peptide is cleaved upon UV-irradiation, and exchanged with the peptide of interest as analyzed. Only peptide candidates that can effectively bind and stabilize the peptide-receptive MHC molecules prevent dissociation of the MHC complexes. To determine the yield of the exchange reaction, an ELISA was performed based on the detection of the light chain (β2m) of stabilized MHC complexes. The assay was performed as generally described in Rodenko et al. (Rodenko et al., 2006).
# (§2) 96 well MAXISorp plates (NUNC) were coated over night with 2 ug/ml streptavidin in PBS at room temperature, washed 4× and blocked for 1 h at 37° C. in 2% BSA containing blocking buffer. […] Peptide-MHC monomers of the UV-exchange reaction were diluted 100-fold in blocking buffer. Samples were incubated for 1 h at 37° C., washed four times, incubated with 2 ug/ml HRP conjugated anti-β2m for 1h at 37° C., washed again and detected with TMB solution that is stopped with […]. Absorption was measured at 450 nm.
row,Binder,peptide exchange yield
1,MYINEVERL [MYINEVERL (SEQ ID NO: 385)],> 75%
2,VYNDHSIYVW [VYNDHSIYVW (SEQ ID NO: 386)],> 75%

# Target: T2, HLA-B*07 (human)
# T2 construct: MHC monomer made peptide-receptive by UV cleavage of a UV-sensitive ligand; also called peptide-receptive MHC class I monomer
# Assay: UV peptide-exchange ELISA; ++++ = yield >75%
# Excerpt: as §1, §2
row,Binder,peptide exchange yield
1,GPQPWHAAL [GPQPWHAAL (SEQ ID NO: 224)],> 75%
2,NPFPHLITL [NPFPHLITL (SEQ ID NO: 254)],> 75%
3,SPMYGQAGL [SPMYGQAGL (SEQ ID NO: 468)],> 75%
4,SPSVSQLSVL [SPSVSQLSVL (SEQ ID NO: 220)],> 75%
5,RPHSLSSEL [RPHSLSSEL (SEQ ID NO: 283)],> 75%
6,SPRMSGLLSQT [SPRMSGLLSQT (SEQ ID NO: 226)],> 75%
7,SPRQPPRLV [SPRQPPRLV (SEQ ID NO: 265)],> 75%
8,RPRSALPRLLLP [RPRSALPRLLLP (SEQ ID NO: 293)],> 75%
9,TPKAGPTL [TPKAGPTL (SEQ ID NO: 463)],> 75%
10,GPTPNTGAAL [GPTPNTGAAL (SEQ ID NO: 294)],> 75%
11,FPYVRDFVM [FPYVRDFVM (SEQ ID NO: 244)],> 75%
12,MPLKHYLLL [MPLKHYLLL (SEQ ID NO: 235)],> 75%
13,MPLPWSLALPL [MPLPWSLALPL (SEQ ID NO: 272)],> 75%
14,RPFHTRATV [RPFHTRATV (SEQ ID NO: 462)],> 75%
15,NPRATDAQL [NPRATDAQL (SEQ ID NO: 472)],> 75%
16,LPRLLPAL [LPRLLPAL (SEQ ID NO: 474)],> 75%
17,APRAPRLML [APRAPRLML (SEQ ID NO: 269)],> 75%
18,YPRPGTPAA [YPRPGTPAA (SEQ ID NO: 464)],> 75%
19,MPLLENLYL [MPLLENLYL (SEQ ID NO: 255)],> 75%
20,LPRGPLASL [LPRGPLASL (SEQ ID NO: 258)],> 75%
21,RPHKPGLYL [RPHKPGLYL (SEQ ID NO: 475)],> 75%

row,Binder,peptide exchange yield
1,APYRPPDISL [APYRPPDISL (SEQ ID NO: 290)],> 75%
2,RPRALRDLQL [RPRALRDLQL (SEQ ID NO: 231)],> 75%
3,MPMAGDMNGL [MPMAGDMNGL (SEQ ID NO: 460)],> 75%
4,KPEGTRIAV [KPEGTRIAV (SEQ ID NO: 295)],> 75%
5,RPRAPVTPA [RPRAPVTPA (SEQ ID NO: 281)],> 75%
6,VPENHSVAL [VPENHSVAL (SEQ ID NO: 289)],> 75%
7,VPRSSGQTV [VPRSSGQTV (SEQ ID NO: 251)],> 75%
8,APGPRFLVT [APGPRFLVT (SEQ ID NO: 270)],> 75%
9,KPGPPWAAF [KPGPPWAAF (SEQ ID NO: 238)],> 75%
10,SPDIRNTTV [SPDIRNTTV (SEQ ID NO: 252)],> 75%
11,SPNSYFRVL [SPNSYFRVL (SEQ ID NO: 470)],> 75%
12,FPSFLTNSL [FPSFLTNSL (SEQ ID NO: 285)],> 75%
13,LPRALLSSL [LPRALLSSL (SEQ ID NO: 473)],> 75%
14,VPRPIFSQL [VPRPIFSQL (SEQ ID NO: 465)],> 75%
15,VPSSRILQL [VPSSRILQL (SEQ ID NO: 249)],> 75%
16,IPNWARQDL [IPNWARQDL (SEQ ID NO: 248)],> 75%
17,RAKNAGVTI [RAKNAGVTI (SEQ ID NO: 234)],> 75%
18,SPRDFLSGL [SPRDFLSGL (SEQ ID NO: 250)],> 75%
19,HPAPYGDLL [HPAPYGDLL (SEQ ID NO: 263)],> 75%
20,RPRALRDLQLL [RPRALRDLQLL (SEQ ID NO: 232)],> 75%
21,KPYQGNPTF [KPYQGNPTF (SEQ ID NO: 233)],> 75%

row,Binder,peptide exchange yield
1,YPRGNHWAVGH [YPRGNHWAVGH (SEQ ID NO: 227)],> 75%
2,KPRPDVTNEL [KPRPDVTNEL (SEQ ID NO: 471)],> 75%
3,RVRGGEDGDRAL [RVRGGEDGDRAL (SEQ ID NO: 236)],> 75%
4,YPKDIYSSF [YPKDIYSSF (SEQ ID NO: 223)],> 75%
5,YVPSASLFML [YVPSASLFML (SEQ ID NO: 239)],> 75%
6,VPDVAQFVL [VPDVAQFVL (SEQ ID NO: 221)],> 75%
7,LPFDGPGGIL [LPFDGPGGIL (SEQ ID NO: 225)],> 75%
8,LPRIPFADV [LPRIPFADV (SEQ ID NO: 257)],> 75%
9,SPREVTTVL [SPREVTTVL (SEQ ID NO: 240)],> 75%
10,YPRGNHWAVGHL [YPRGNHWAVGHL (SEQ ID NO: 228)],> 75%
11,SPQRLRGLL [SPQRLRGLL (SEQ ID NO: 291)],> 75%
12,RPIENRILIL [RPIENRILIL (SEQ ID NO: 243)],> 75%
13,VPTLRSEL [VPTLRSEL (SEQ ID NO: 286)],> 75%
14,SPRVPSIEL [SPRVPSIEL (SEQ ID NO: 256)],> 75%
15,KPFSSFTSM [KPFSSFTSM (SEQ ID NO: 467)],> 75%
16,TPLPAVIVL [TPLPAVIVL (SEQ ID NO: 246)],> 75%
17,SARLATDAL [SARLATDAL (SEQ ID NO: 241)],> 75%
18,YPLFRGINL [YPLFRGINL (SEQ ID NO: 268)],> 75%
19,APYKSVTSL [APYKSVTSL (SEQ ID NO: 466)],> 75%
20,SPRWLPVSL [SPRWLPVSL (SEQ ID NO: 242)],> 75%
21,RPPAAGLRGISL [RPPAAGLRGISL (SEQ ID NO: 259)],> 75%

# Target: T3, HLA-A*01 (human)
# T3 construct: MHC monomer made peptide-receptive by UV cleavage of a UV-sensitive ligand; also called peptide-receptive MHC class I monomer
# Assay: UV peptide-exchange ELISA; +++ = yield >50%
# Excerpt: as §1, §2
row,Binder,peptide exchange yield
1,KTDESLTKY [KTDESLTKY (SEQ ID NO: 414)],50 to 75%
2,FTEQWTDGY [FTEQWTDGY (SEQ ID NO: 408)],50 to 75%
3,LLDPRSYHTY [LLDPRSYHTY (SEQ ID NO: 415)],50 to 75%
